Target: T1, 6xHis-tagged Mrs6p, wild-type (S. cerevisiae, UniProt P32864 1-603)
T1 sequence: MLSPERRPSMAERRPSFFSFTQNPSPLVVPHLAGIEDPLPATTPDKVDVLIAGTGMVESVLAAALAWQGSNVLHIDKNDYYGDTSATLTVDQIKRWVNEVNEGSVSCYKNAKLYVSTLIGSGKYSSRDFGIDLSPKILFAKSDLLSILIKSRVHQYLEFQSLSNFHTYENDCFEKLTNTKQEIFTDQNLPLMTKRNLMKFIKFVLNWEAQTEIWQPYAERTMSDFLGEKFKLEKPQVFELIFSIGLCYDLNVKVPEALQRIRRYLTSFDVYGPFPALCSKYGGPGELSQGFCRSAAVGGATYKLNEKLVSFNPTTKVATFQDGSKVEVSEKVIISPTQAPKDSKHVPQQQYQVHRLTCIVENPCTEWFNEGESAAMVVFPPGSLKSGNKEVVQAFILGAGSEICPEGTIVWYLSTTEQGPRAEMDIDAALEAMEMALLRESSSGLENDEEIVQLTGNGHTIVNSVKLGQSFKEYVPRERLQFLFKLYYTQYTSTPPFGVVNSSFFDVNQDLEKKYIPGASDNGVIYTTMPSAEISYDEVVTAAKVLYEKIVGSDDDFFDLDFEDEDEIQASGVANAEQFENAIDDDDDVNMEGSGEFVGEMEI
Experiment: other fluorescence titration

B1: prenylated His6-tagged Rab3A (natural protein)
chain: MASATDSRYGQKESSDQNFDYMFKILIIGNSSVGKTSFLFRYADDSFTPAFVSTVGIDFKVKTIYRNDKRIKLQIWDTAGQERYRTITTAYYRGAMGFILMYDITNEESFNAVQDWSTQIKTYSWDNAQVLLVGNKCDMEDERVVSSERGRQLADHLGFEFFEASAKDNINVKQTFERLVDVICEKMSESLDTADPAVTGAKQGPQLSDQQVPPHQDCAC
modifications: prenylated (residues not stated)
  Kd: 320 nM

— PMC2185574 (The Journal of Cell Biology, 2000)
